Reference: PMC3962895

Molecular target: dEV8 (8-mer self-peptide) peptide on H-2Kb (mouse)
Experiment: data from

Kd: 84.1 µM
Substance: 2C TCR
